What was measured:
[1] = target: DNA-PK assembly (KU-DNA-DNA-PKcs) (human (endogenous in HeLa)) (UniProt P78527); experiment: SEC-MALS + other: SAXS
[2] = target: KU (KU70/KU80 heterodimer) (human (endogenous in HeLa)) (UniProt P12956); experiment: SEC-MALS + other: SAXS

| weight of the dimer in the two-state SAXS fit [1] | stoichiometry N [2] | Substance |
| --- | --- | --- |
| 24% |  | DNA-PK assembly (KU-DNA-DNA-PKcs) (from UniProt P78527 1-4128; P12956 1-609; P13010 1-732) (complex) |
|  | 2 | KU (KU70/KU80 heterodimer) (from UniProt P12956 1-609; P13010 1-732) (complex) |

From paper PMC8896507
